Legend:
Assay in all cases: cell-based or functional assay
[1] = biological target: Thrombospondin (TSP)-1 (human) (UniProt P07996)
CD36 (human) = CD36 (human) (UniProt P16671)
[2] = biological target: CD51/alphaV integrin (human) (UniProt P06756)
Chain of UniProt P06756 (P06756 31-1048): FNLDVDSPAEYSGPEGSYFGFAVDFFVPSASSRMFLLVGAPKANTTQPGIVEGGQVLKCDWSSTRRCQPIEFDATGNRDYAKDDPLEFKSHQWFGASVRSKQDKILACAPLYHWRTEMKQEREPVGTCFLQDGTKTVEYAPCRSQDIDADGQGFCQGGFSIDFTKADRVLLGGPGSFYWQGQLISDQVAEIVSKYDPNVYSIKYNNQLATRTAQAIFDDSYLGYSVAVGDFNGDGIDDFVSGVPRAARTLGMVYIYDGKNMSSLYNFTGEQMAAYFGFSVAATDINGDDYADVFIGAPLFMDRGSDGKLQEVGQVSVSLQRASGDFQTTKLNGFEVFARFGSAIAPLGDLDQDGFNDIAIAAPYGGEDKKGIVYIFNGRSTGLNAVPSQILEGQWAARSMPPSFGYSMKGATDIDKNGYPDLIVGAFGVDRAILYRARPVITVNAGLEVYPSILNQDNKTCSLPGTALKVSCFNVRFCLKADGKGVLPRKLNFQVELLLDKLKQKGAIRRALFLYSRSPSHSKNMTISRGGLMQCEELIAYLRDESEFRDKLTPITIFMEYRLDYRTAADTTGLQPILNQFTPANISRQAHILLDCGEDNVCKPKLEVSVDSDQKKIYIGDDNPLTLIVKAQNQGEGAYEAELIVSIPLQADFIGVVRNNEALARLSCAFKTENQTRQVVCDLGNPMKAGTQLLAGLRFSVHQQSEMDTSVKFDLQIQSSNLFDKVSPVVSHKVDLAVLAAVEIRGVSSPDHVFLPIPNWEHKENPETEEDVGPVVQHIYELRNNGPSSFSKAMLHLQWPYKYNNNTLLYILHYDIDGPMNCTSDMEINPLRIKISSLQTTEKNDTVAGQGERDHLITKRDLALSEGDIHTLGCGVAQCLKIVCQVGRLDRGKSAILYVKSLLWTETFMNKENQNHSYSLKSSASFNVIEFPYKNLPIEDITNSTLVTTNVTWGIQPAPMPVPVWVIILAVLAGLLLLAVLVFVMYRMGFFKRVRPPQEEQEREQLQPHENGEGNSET

Chain of UniProt P16671 (P16671 2-472): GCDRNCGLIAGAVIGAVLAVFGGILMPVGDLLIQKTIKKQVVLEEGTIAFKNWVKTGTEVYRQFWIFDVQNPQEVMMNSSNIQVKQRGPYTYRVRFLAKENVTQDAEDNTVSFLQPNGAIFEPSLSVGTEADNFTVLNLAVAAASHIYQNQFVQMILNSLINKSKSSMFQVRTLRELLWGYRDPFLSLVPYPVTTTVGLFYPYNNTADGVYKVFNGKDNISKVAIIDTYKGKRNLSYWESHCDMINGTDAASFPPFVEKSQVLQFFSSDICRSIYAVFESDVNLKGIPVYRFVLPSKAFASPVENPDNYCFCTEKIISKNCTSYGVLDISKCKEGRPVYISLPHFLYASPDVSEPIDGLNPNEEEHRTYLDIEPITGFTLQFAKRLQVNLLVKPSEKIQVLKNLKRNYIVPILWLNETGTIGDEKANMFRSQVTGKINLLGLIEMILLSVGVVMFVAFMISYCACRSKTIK
Chain of UniProt P07996 (P07996 19-1170 A84T limits assumed): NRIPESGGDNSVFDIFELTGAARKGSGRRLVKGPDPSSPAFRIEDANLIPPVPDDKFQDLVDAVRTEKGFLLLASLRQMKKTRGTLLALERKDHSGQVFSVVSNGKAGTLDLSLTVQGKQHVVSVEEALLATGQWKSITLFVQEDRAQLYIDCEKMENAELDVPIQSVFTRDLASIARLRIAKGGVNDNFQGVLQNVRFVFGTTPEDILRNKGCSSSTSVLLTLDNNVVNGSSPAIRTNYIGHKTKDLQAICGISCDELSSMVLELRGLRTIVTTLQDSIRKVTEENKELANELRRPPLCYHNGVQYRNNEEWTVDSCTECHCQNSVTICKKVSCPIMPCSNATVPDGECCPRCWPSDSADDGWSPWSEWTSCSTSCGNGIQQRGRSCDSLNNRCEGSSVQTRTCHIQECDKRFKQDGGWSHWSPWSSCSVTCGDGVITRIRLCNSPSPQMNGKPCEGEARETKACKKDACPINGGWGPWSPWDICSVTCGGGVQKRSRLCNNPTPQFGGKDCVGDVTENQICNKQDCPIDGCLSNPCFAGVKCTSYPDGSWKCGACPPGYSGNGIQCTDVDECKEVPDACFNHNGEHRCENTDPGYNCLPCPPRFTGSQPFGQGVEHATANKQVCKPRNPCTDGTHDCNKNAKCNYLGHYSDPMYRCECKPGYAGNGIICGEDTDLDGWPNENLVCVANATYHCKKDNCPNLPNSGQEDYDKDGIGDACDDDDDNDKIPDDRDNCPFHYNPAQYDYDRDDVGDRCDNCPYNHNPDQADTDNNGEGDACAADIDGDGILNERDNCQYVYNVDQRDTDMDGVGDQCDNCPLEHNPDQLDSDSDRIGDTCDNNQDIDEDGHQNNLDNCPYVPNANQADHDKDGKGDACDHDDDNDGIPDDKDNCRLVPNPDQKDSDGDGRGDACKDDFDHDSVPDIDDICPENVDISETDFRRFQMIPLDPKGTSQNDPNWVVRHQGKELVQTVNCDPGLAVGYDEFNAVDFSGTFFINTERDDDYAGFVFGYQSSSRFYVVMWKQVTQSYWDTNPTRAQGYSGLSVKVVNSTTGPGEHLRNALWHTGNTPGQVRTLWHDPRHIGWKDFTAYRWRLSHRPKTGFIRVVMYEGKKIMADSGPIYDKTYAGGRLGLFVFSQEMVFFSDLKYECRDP

azide-free polyclonal goat anti-human thrombospondin-1 N-terminus antibody N-20 (Santa Cruz Biotechnology, Cat No. sc-12312)
inhibition of apoptotic monocyte endocytosis by immature dendritic cells (percentage of thrombospondin-1-dependent endocytosis) [1]: 90 percent

mouse IgM anti-human CD36 monoclonal antibody (clone SMO; Serotec, Cat. No. MCA722XZ)
inhibition of apoptotic monocyte endocytosis by immature dendritic cells (percentage of thrombospondin-1-dependent endocytosis) (CD36 (human)): 64 percent

mouse anti-CD51/integrin alphaV monoclonal antibody (clone AV1; Chemicon International, Cat. No. MAB2021Z)
inhibition of apoptotic monocyte endocytosis by immature dendritic cells (percentage of thrombospondin-1-dependent endocytosis) [2]: 24 percent

Reference: patent US20100255003A1
